Results published in patent publication US20250163410.

Tested on: VchCAST TnsB transposase (Tn6677; assayed with TnsA-TnsC and TniQ-Cascade) (Vibrio cholerae)
Assay: cell_activity
Details: T-RL; for binding signal: no IPTG

Question: Which binding signal (log2 fold vs WT) (second replicate -1.9162) does the source give for “ACATTTTTTGATACAACCATAAAATGATAATTACACCCATAAATTGATAATTATCACACCCATAAATTGATATTGCCTCTGATCATAGTCAGACCAACATTGCTACGACCCGTATTCGCACCGACAC (double strand) [Right end variant 1066]” here?
Answer: -2.48

Question: With “AATGTTGTTGATGCAACCATAAAGTGATATTTAATAATTATTTATAATCAGCAACTTAACCACAAAACAACCAGATATTGATATCTCACAAAACAACCATAAGTTGATATTTTTGTGAATCGAGTATTTCAGCAAAACTACTGCAGTAAGAA (double strand) [Left end variant 3260]” as the sequence, how does the binding signal (log2 fold vs WT) (second replicate -0.7874) read?
Answer: -1.91

Question: With “TGTTGATACAACCATAAAAGGATTATTACACCCATTAATTGATAATTATCACACCCA (double strand) [Right end ORF2a]” as the sequence, how does the binding signal (log2 fold vs WT) (second replicate -1.82) read?
Answer: -2.22

Question: For “AATGTTGTTGAAACAACCATAAAGTGATAACAACGAATCAATTAAAATCATAGGCTTAATCGAAAAACAACCATATCTTGATATCGCATAAAACAACCATAAGTTGATATTTTGGTGAAAAGGATATTCCAACCTTCATAGTTTAGTAAGAA (double strand) [Left end hyperactive 4668]”, which binding signal is on record?
Answer: 1.76 fold vs WT

Question: Which binding signal does the source give for “ACATTTGTTGATACAACCATAAAATGATAATTACACCCATAAATTGATAATTATCACACCCATAAATTGATATTGCCTCTGGCGCTCTGTACCCCGCTCGGTCCTCCCGCGCATCGCGCACCGACAC (double strand) [Right end hyperactive 2698]” here?
Answer: 1.59 fold vs WT

Question: How did the binding signal (log2 fold vs WT) (second replicate 1.0127) turn out when “ACATTTGTTGATACAACCATAAAATGATAATAACACCCATAAATTGATAATTATCACACCCATAAATTGATATTGCCTCTGATCATAGTCAGACCAACATTGCTACGACCCGTATTCGCACCGACAC (double strand) [Right end variant 990]” was run?
Answer: 0.854

Question: With “AATGTTGTTGATGCAACCATAAAGTGATATTTAATAATTATTTATAATCAGCAACTTAACCACAAAACAACCATATATTGATATCTCACAAAACAACCATAAGTTGATATTTTTGTGAATAGGATATTCCAACCTTCATAGTTTAGTAAGAA (double strand) [Left end hyperactive 4673]” as the sequence, how does the binding signal read?
Answer: 1.53 fold vs WT

Question: How did the binding signal (log2 fold vs WT) (second replicate 1.4722) turn out when “ACATTTGTTGATACAACCATAATATGATAATTACACCCATAAATTGATAATTATCACACCCATAAATTGATATTGCCTCTGATCATAGTCAGACCAACATTGCTACGACCCGTATTCGCACCGACAC (double strand) [Right end variant 1017]” was run?
Answer: 1.36

Question: Which binding signal (log2 fold vs WT) (second replicate -1.89) does the source give for “TGTTGATACAACCATTAAATGGTAATTCCACCCAAATATTGATAATTATCACACCCA (double strand) [Right end ORF3c]” here?
Answer: -2.49
